Measurements: US20230272029A1, “CO-AGONISTS AT GLP-1 AND GIP RECEPTORS SUITABLE FOR ORAL DELIVERY” (Novo Nordisk A/S, priority 2020, published 2023)
Starred links: 1 amine or outer side, 2 acyl side, 3 side chain; linkers in the order of their positions; H or OH if unused. Non-standard residues stand in square brackets, D forms with d. Groups on a side chain read outwards from the residue. No end group written: not given here. *: point of attachment. C20 diacid = O=C(O)CCCCCCCCCCCCCCCCCCC(=O)*; C18 diacid = O=C(O)CCCCCCCCCCCCCCCCC(=O)*; γGlu = O=C(O)[C@H](CCC(=O)[*:2])N[*:1]; εLys = N[C@@H](CCCCN[*:1])C(=O)[*:2]; AEEA = NCCOCCOCC(=O)O; Aib = CC(C)(N)C(=O)O

B1: Compound No. 8 (peptide)
peptide: Y[Aib]EGTFTSDYSIYLEK([εLys-εLys-γGlu-C18 diacid])QAAREFINWLLAGGPSSGAPPPS-NH2
modifications: N-terminus assumed
SMILES: CC[C@H](C)[C@H](NC(=O)[C@H](Cc1ccccc1)NC(=O)[C@H](CCC(=O)O)NC(=O)[C@H](CCCNC(=N)N)NC(=O)[C@H](C)NC(=O)[C@H](C)NC(=O)[C@H](CCC(N)=O)NC(=O)[C@H](CCCCNC(=O)[C@@H](N)CCCCNC(=O)[C@@H](N)CCCCNC(=O)CC[C@H](NC(=O)CCCCCCCCCCCCCCCCC(=O)O)C(=O)O)NC(=O)[C@H](CCC(=O)O)NC(=O)[C@H](CC(C)C)NC(=O)[C@H](Cc1ccc(O)cc1)NC(=O)[C@@H](NC(=O)[C@H](CO)NC(=O)[C@H](Cc1ccc(O)cc1)NC(=O)[C@H](CC(=O)O)NC(=O)[C@H](CO)NC(=O)[C@@H](NC(=O)[C@H](Cc1ccccc1)NC(=O)[C@@H](NC(=O)CNC(=O)[C@H](CCC(=O)O)NC(=O)C(C)(C)NC(=O)[C@@H](N)Cc1ccc(O)cc1)[C@@H](C)O)[C@@H](C)O)[C@@H](C)CC)C(=O)N[C@@H](CC(N)=O)C(=O)N[C@@H](Cc1c[nH]c2ccccc12)C(=O)N[C@@H](CC(C)C)C(=O)N[C@@H](CC(C)C)C(=O)N[C@@H](C)C(=O)NCC(=O)NCC(=O)N1CCC[C@H]1C(=O)N[C@@H](CO)C(=O)N[C@@H](CO)C(=O)NCC(=O)N[C@@H](C)C(=O)N1CCC[C@H]1C(=O)N1CCC[C@H]1C(=O)N1CCC[C@H]1C(=O)N[C@@H](CO)C(N)=O
B2: Compound No. 10 (peptide)
peptide: Y[Aib]EGTFTSDYSIYLEK([AEEA-AEEA-γGlu-C18 diacid])QAAREFIEWLLAGGPSSGAPPPS-OH
modifications: N-terminus assumed
SMILES: CC[C@H](C)[C@H](NC(=O)[C@H](Cc1ccccc1)NC(=O)[C@H](CCC(=O)O)NC(=O)[C@H](CCCNC(=N)N)NC(=O)[C@H](C)NC(=O)[C@H](C)NC(=O)[C@H](CCC(N)=O)NC(=O)[C@H](CCCCNC(=O)COCCOCCNC(=O)COCCOCCNC(=O)CC[C@H](NC(=O)CCCCCCCCCCCCCCCCC(=O)O)C(=O)O)NC(=O)[C@H](CCC(=O)O)NC(=O)[C@H](CC(C)C)NC(=O)[C@H](Cc1ccc(O)cc1)NC(=O)[C@@H](NC(=O)[C@H](CO)NC(=O)[C@H](Cc1ccc(O)cc1)NC(=O)[C@H](CC(=O)O)NC(=O)[C@H](CO)NC(=O)[C@@H](NC(=O)[C@H](Cc1ccccc1)NC(=O)[C@@H](NC(=O)CNC(=O)[C@H](CCC(=O)O)NC(=O)C(C)(C)NC(=O)[C@@H](N)Cc1ccc(O)cc1)[C@@H](C)O)[C@@H](C)O)[C@@H](C)CC)C(=O)N[C@@H](CCC(=O)O)C(=O)N[C@@H](Cc1c[nH]c2ccccc12)C(=O)N[C@@H](CC(C)C)C(=O)N[C@@H](CC(C)C)C(=O)N[C@@H](C)C(=O)NCC(=O)NCC(=O)N1CCC[C@H]1C(=O)N[C@@H](CO)C(=O)N[C@@H](CO)C(=O)NCC(=O)N[C@@H](C)C(=O)N1CCC[C@H]1C(=O)N1CCC[C@H]1C(=O)N1CCC[C@H]1C(=O)N[C@@H](CO)C(=O)O
B3: Compound No. 1 (peptide)
peptide: Y[Aib]EGTFTSDYSIYLEK([εLys-εLys-γGlu-C20 diacid])QAAQEFVNWLLAGGPSSGAPPPS-NH2
modifications: N-terminus assumed
SMILES: CC[C@H](C)[C@H](NC(=O)[C@H](CO)NC(=O)[C@H](Cc1ccc(O)cc1)NC(=O)[C@H](CC(=O)O)NC(=O)[C@H](CO)NC(=O)[C@@H](NC(=O)[C@H](Cc1ccccc1)NC(=O)[C@@H](NC(=O)CNC(=O)[C@H](CCC(=O)O)NC(=O)C(C)(C)NC(=O)[C@@H](N)Cc1ccc(O)cc1)[C@@H](C)O)[C@@H](C)O)C(=O)N[C@@H](Cc1ccc(O)cc1)C(=O)N[C@@H](CC(C)C)C(=O)N[C@@H](CCC(=O)O)C(=O)N[C@@H](CCCCNC(=O)[C@@H](N)CCCCNC(=O)[C@@H](N)CCCCNC(=O)CC[C@H](NC(=O)CCCCCCCCCCCCCCCCCCC(=O)O)C(=O)O)C(=O)N[C@@H](CCC(N)=O)C(=O)N[C@@H](C)C(=O)N[C@@H](C)C(=O)N[C@@H](CCC(N)=O)C(=O)N[C@@H](CCC(=O)O)C(=O)N[C@@H](Cc1ccccc1)C(=O)N[C@H](C(=O)N[C@@H](CC(N)=O)C(=O)N[C@@H](Cc1c[nH]c2ccccc12)C(=O)N[C@@H](CC(C)C)C(=O)N[C@@H](CC(C)C)C(=O)N[C@@H](C)C(=O)NCC(=O)NCC(=O)N1CCC[C@H]1C(=O)N[C@@H](CO)C(=O)N[C@@H](CO)C(=O)NCC(=O)N[C@@H](C)C(=O)N1CCC[C@H]1C(=O)N1CCC[C@H]1C(=O)N1CCC[C@H]1C(=O)N[C@@H](CO)C(N)=O)C(C)C
B4: Compound No. 37 (peptide)
peptide: Y[Aib]EGTFTSDYSIYLEEQAARK([εLys-εLys-γGlu-C18 diacid])FINWLLAGGPSSGAPPPS-OH
modifications: N-terminus assumed
SMILES: CC[C@H](C)[C@H](NC(=O)[C@H](Cc1ccccc1)NC(=O)[C@H](CCCCNC(=O)[C@@H](N)CCCCNC(=O)[C@@H](N)CCCCNC(=O)CC[C@H](NC(=O)CCCCCCCCCCCCCCCCC(=O)O)C(=O)O)NC(=O)[C@H](CCCNC(=N)N)NC(=O)[C@H](C)NC(=O)[C@H](C)NC(=O)[C@H](CCC(N)=O)NC(=O)[C@H](CCC(=O)O)NC(=O)[C@H](CCC(=O)O)NC(=O)[C@H](CC(C)C)NC(=O)[C@H](Cc1ccc(O)cc1)NC(=O)[C@@H](NC(=O)[C@H](CO)NC(=O)[C@H](Cc1ccc(O)cc1)NC(=O)[C@H](CC(=O)O)NC(=O)[C@H](CO)NC(=O)[C@@H](NC(=O)[C@H](Cc1ccccc1)NC(=O)[C@@H](NC(=O)CNC(=O)[C@H](CCC(=O)O)NC(=O)C(C)(C)NC(=O)[C@@H](N)Cc1ccc(O)cc1)[C@@H](C)O)[C@@H](C)O)[C@@H](C)CC)C(=O)N[C@@H](CC(N)=O)C(=O)N[C@@H](Cc1c[nH]c2ccccc12)C(=O)N[C@@H](CC(C)C)C(=O)N[C@@H](CC(C)C)C(=O)N[C@@H](C)C(=O)NCC(=O)NCC(=O)N1CCC[C@H]1C(=O)N[C@@H](CO)C(=O)N[C@@H](CO)C(=O)NCC(=O)N[C@@H](C)C(=O)N1CCC[C@H]1C(=O)N1CCC[C@H]1C(=O)N1CCC[C@H]1C(=O)N[C@@H](CO)C(=O)O
B5: Compound No. 12 (peptide)
peptide: Y[Aib]EGTFTSDYSIYLEK([εLys-εLys-γGlu-C18 diacid])QAAREFIEWLLRGGPSSGAPPPS-OH
modifications: N-terminus assumed
SMILES: CC[C@H](C)[C@H](NC(=O)[C@H](Cc1ccccc1)NC(=O)[C@H](CCC(=O)O)NC(=O)[C@H](CCCNC(=N)N)NC(=O)[C@H](C)NC(=O)[C@H](C)NC(=O)[C@H](CCC(N)=O)NC(=O)[C@H](CCCCNC(=O)[C@@H](N)CCCCNC(=O)[C@@H](N)CCCCNC(=O)CC[C@H](NC(=O)CCCCCCCCCCCCCCCCC(=O)O)C(=O)O)NC(=O)[C@H](CCC(=O)O)NC(=O)[C@H](CC(C)C)NC(=O)[C@H](Cc1ccc(O)cc1)NC(=O)[C@@H](NC(=O)[C@H](CO)NC(=O)[C@H](Cc1ccc(O)cc1)NC(=O)[C@H](CC(=O)O)NC(=O)[C@H](CO)NC(=O)[C@@H](NC(=O)[C@H](Cc1ccccc1)NC(=O)[C@@H](NC(=O)CNC(=O)[C@H](CCC(=O)O)NC(=O)C(C)(C)NC(=O)[C@@H](N)Cc1ccc(O)cc1)[C@@H](C)O)[C@@H](C)O)[C@@H](C)CC)C(=O)N[C@@H](CCC(=O)O)C(=O)N[C@@H](Cc1c[nH]c2ccccc12)C(=O)N[C@@H](CC(C)C)C(=O)N[C@@H](CC(C)C)C(=O)N[C@@H](CCCNC(=N)N)C(=O)NCC(=O)NCC(=O)N1CCC[C@H]1C(=O)N[C@@H](CO)C(=O)N[C@@H](CO)C(=O)NCC(=O)N[C@@H](C)C(=O)N1CCC[C@H]1C(=O)N1CCC[C@H]1C(=O)N1CCC[C@H]1C(=O)N[C@@H](CO)C(=O)O
B6: Compound No. 11 (peptide)
peptide: Y[Aib]EGTFTSDYSIYLEK([εLys-εLys-γGlu-C18 diacid])QAAREFINWLLAGGPSSGAPPPS-OH
modifications: N-terminus assumed
SMILES: CC[C@H](C)[C@H](NC(=O)[C@H](Cc1ccccc1)NC(=O)[C@H](CCC(=O)O)NC(=O)[C@H](CCCNC(=N)N)NC(=O)[C@H](C)NC(=O)[C@H](C)NC(=O)[C@H](CCC(N)=O)NC(=O)[C@H](CCCCNC(=O)[C@@H](N)CCCCNC(=O)[C@@H](N)CCCCNC(=O)CC[C@H](NC(=O)CCCCCCCCCCCCCCCCC(=O)O)C(=O)O)NC(=O)[C@H](CCC(=O)O)NC(=O)[C@H](CC(C)C)NC(=O)[C@H](Cc1ccc(O)cc1)NC(=O)[C@@H](NC(=O)[C@H](CO)NC(=O)[C@H](Cc1ccc(O)cc1)NC(=O)[C@H](CC(=O)O)NC(=O)[C@H](CO)NC(=O)[C@@H](NC(=O)[C@H](Cc1ccccc1)NC(=O)[C@@H](NC(=O)CNC(=O)[C@H](CCC(=O)O)NC(=O)C(C)(C)NC(=O)[C@@H](N)Cc1ccc(O)cc1)[C@@H](C)O)[C@@H](C)O)[C@@H](C)CC)C(=O)N[C@@H](CC(N)=O)C(=O)N[C@@H](Cc1c[nH]c2ccccc12)C(=O)N[C@@H](CC(C)C)C(=O)N[C@@H](CC(C)C)C(=O)N[C@@H](C)C(=O)NCC(=O)NCC(=O)N1CCC[C@H]1C(=O)N[C@@H](CO)C(=O)N[C@@H](CO)C(=O)NCC(=O)N[C@@H](C)C(=O)N1CCC[C@H]1C(=O)N1CCC[C@H]1C(=O)N1CCC[C@H]1C(=O)N[C@@H](CO)C(=O)O

What was measured:
[1] = target: T1, human GIP receptor (human, UniProt P48546 22-466); experiment: cell-based or functional assay
T1 sequence (looked up): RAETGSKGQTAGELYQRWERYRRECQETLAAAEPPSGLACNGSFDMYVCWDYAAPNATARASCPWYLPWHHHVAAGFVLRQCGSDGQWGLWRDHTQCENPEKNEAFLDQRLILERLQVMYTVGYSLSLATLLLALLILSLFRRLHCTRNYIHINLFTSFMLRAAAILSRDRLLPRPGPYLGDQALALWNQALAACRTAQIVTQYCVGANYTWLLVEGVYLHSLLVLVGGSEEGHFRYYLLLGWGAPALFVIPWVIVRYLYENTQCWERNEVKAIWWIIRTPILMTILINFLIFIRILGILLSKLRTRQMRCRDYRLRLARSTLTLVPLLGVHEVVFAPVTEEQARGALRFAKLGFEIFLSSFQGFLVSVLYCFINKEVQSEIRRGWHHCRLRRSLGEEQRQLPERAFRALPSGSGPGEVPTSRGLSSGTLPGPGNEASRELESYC

[2] = target: human GLP-1 receptor (human, UniProt P43220 24-463); experiment: cell-based or functional assay

Binder	hGIPR, CRE Luc 0% HSA EC50 (pM) [1]	hGIPR, CRE Luc 1% HSA EC50 (pM) [1]	hGLP-1R, CRE Luc 0% HSA EC50 (pM) [2]	hGLP-1R, CRE Luc 1% HSA EC50 (pM) [2]
B1	6.7 pM	191 pM	2.3 pM	82.1 pM
B2		1750 pM	3.9 pM	940 pM
B3	2.8 pM	172 pM	7.8 pM	1660 pM
B4	11.2 pM	298 pM	2.7 pM	94.6 pM
B5	9 pM	71.5 pM	4 pM	54.4 pM
B6	9.9 pM	450 pM	3.3 pM	132 pM
